Numbered stars: 1 amine (or outer) side, 2 acyl side, 3 side chain; on linkers, the order of the positions; unused ones are H or OH. Square brackets hold non-standard residues; d marks the D form. Side chains are listed from the residue outwards. Ends that are not written are not given here. * marks the point of attachment. C18 diacid = O=C(O)CCCCCCCCCCCCCCCCC(=O)*; γGlu = O=C(O)[C@H](CCC(=O)[*:2])N[*:1]; Palmitoyl = CCCCCCCCCCCCCCCC(=O)*; AEEA = NCCOCCOCC(=O)O; Aib = CC(C)(N)C(=O)O
Key:
GC receptor = assay: cell-based or functional assay
human GLP-1 receptor = human GLP-1 receptor (human, UniProt P43220 24-463); assay: cell-based or functional assay

Binder	EC50 of GC receptor mediated cAMP production (GC receptor)	EC50 of GLP-1 receptor mediated cAMP production (human GLP-1 receptor)
HXQGTFTSDKSKYLEERAAKEFIAWLLEGGPSSG (HELM PEPTIDE1{H.[Aib].Q.G.T.F.T.S.D.K.S.K.Y.L.E.E.R.A.A.K.E.F.I.A.W.L.L.E.G.G.P.S.S.G.[am]}|PEPTIDE2{[CCCCCCCCCCCCCCCC(=O)[*:2]].[gGlu].[gGlu]}$PEPTIDE1,PEPTIDE2,10:R3-3:R2$$$V2.0; N-terminus assumed; SMILES CCCCCCCCCCCCCCCC(=O)N[C@@H](CCC(=O)N[C@@H](CCC(=O)NCCCC[C@H](NC(=O)[C@H](CC(=O)O)NC(=O)[C@H](CO)NC(=O)[C@@H](NC(=O)[C@H](Cc1ccccc1)NC(=O)[C@@H](NC(=O)CNC(=O)[C@H](CCC(N)=O)NC(=O)C(C)(C)NC(=O)[C@@H](N)Cc1c[nH]cn1)[C@@H](C)O)[C@@H](C)O)C(=O)N[C@@H](CO)C(=O)N[C@@H](CCCCN)C(=O)N[C@@H](Cc1ccc(O)cc1)C(=O)N[C@@H](CC(C)C)C(=O)N[C@@H](CCC(=O)O)C(=O)N[C@@H](CCC(=O)O)C(=O)N[C@@H](CCCNC(=N)N)C(=O)N[C@@H](C)C(=O)N[C@@H](C)C(=O)N[C@@H](CCCCN)C(=O)N[C@@H](CCC(=O)O)C(=O)N[C@@H](Cc1ccccc1)C(=O)N[C@H](C(=O)N[C@@H](C)C(=O)N[C@@H](Cc1c[nH]c2ccccc12)C(=O)N[C@@H](CC(C)C)C(=O)N[C@@H](CC(C)C)C(=O)N[C@@H](CCC(=O)O)C(=O)NCC(=O)NCC(=O)N1CCC[C@H]1C(=O)N[C@@H](CO)C(=O)N[C@@H](CO)C(=O)NCC(N)=O)[C@@H](C)CC)C(=O)O)C(=O)O) [Compound 16]	0.092 nM	0.405 nM
H[Aib]QGTFTSDK([AEEA-AEEA-γGlu-C18 diacid])SKYLEERAAKEFVAWLKEGGPSSG-NH2 (N-terminus assumed; SMILES CC(C)C[C@H](NC(=O)[C@H](Cc1c[nH]c2ccccc12)NC(=O)[C@H](C)NC(=O)[C@@H](NC(=O)[C@H](Cc1ccccc1)NC(=O)[C@H](CCC(=O)O)NC(=O)[C@H](CCCCN)NC(=O)[C@H](C)NC(=O)[C@H](C)NC(=O)[C@H](CCCNC(=N)N)NC(=O)[C@H](CCC(=O)O)NC(=O)[C@H](CCC(=O)O)NC(=O)[C@H](CC(C)C)NC(=O)[C@H](Cc1ccc(O)cc1)NC(=O)[C@H](CCCCN)NC(=O)[C@H](CO)NC(=O)[C@H](CCCCNC(=O)COCCOCCNC(=O)COCCOCCNC(=O)CC[C@H](NC(=O)CCCCCCCCCCCCCCCCC(=O)O)C(=O)O)NC(=O)[C@H](CC(=O)O)NC(=O)[C@H](CO)NC(=O)[C@@H](NC(=O)[C@H](Cc1ccccc1)NC(=O)[C@@H](NC(=O)CNC(=O)[C@H](CCC(N)=O)NC(=O)C(C)(C)NC(=O)[C@@H](N)Cc1c[nH]cn1)[C@@H](C)O)[C@@H](C)O)C(C)C)C(=O)N[C@@H](CCCCN)C(=O)N[C@@H](CCC(=O)O)C(=O)NCC(=O)NCC(=O)N1CCC[C@H]1C(=O)N[C@@H](CO)C(=O)N[C@@H](CO)C(=O)NCC(N)=O) [Compound 17]	0.486 nM	2.21 nM
HXQGTFTSDYSKYLXERAAKEFVXWLEAGGPSSG (HELM PEPTIDE1{H.[Aib].Q.G.T.F.T.S.D.Y.S.K.Y.L.D.E.R.A.A.K.E.F.V.A.W.L.E.A.G.G.P.S.S.G.[am]}|PEPTIDE2{[CCCCCCCCCCCCCCCC(=O)[*:2]].[gGlu].[gGlu]}$PEPTIDE1,PEPTIDE2,20:R3-3:R2$$$V2.0; N-terminus assumed; SMILES CCCCCCCCCCCCCCCC(=O)N[C@@H](CCC(=O)N[C@@H](CCC(=O)NCCCC[C@H](NC(=O)[C@H](C)NC(=O)[C@H](C)NC(=O)[C@H](CCCNC(=N)N)NC(=O)[C@H](CCC(=O)O)NC(=O)[C@H](CC(=O)O)NC(=O)[C@H](CC(C)C)NC(=O)[C@H](Cc1ccc(O)cc1)NC(=O)[C@H](CCCCN)NC(=O)[C@H](CO)NC(=O)[C@H](Cc1ccc(O)cc1)NC(=O)[C@H](CC(=O)O)NC(=O)[C@H](CO)NC(=O)[C@@H](NC(=O)[C@H](Cc1ccccc1)NC(=O)[C@@H](NC(=O)CNC(=O)[C@H](CCC(N)=O)NC(=O)C(C)(C)NC(=O)[C@@H](N)Cc1c[nH]cn1)[C@@H](C)O)[C@@H](C)O)C(=O)N[C@@H](CCC(=O)O)C(=O)N[C@@H](Cc1ccccc1)C(=O)N[C@H](C(=O)N[C@@H](C)C(=O)N[C@@H](Cc1c[nH]c2ccccc12)C(=O)N[C@@H](CC(C)C)C(=O)N[C@@H](CCC(=O)O)C(=O)N[C@@H](C)C(=O)NCC(=O)NCC(=O)N1CCC[C@H]1C(=O)N[C@@H](CO)C(=O)N[C@@H](CO)C(=O)NCC(N)=O)C(C)C)C(=O)O)C(=O)O) [Compound 15]	0.148 nM	0.58 nM
HXQGTFTSDKSKYLESERAKEFVEWLVKEGGPSSG (HELM PEPTIDE1{H.[Aib].Q.G.T.F.T.S.D.K.S.K.Y.L.E.S.E.R.A.K.E.F.V.E.W.L.V.K.E.G.G.P.S.S.G.[am]}|PEPTIDE2{[CCCCCCCCCCCCCCCC(=O)[*:2]].[gGlu].[gGlu]}$PEPTIDE1,PEPTIDE2,10:R3-3:R2$$$V2.0; N-terminus assumed; SMILES CCCCCCCCCCCCCCCC(=O)N[C@@H](CCC(=O)N[C@@H](CCC(=O)NCCCC[C@H](NC(=O)[C@H](CC(=O)O)NC(=O)[C@H](CO)NC(=O)[C@@H](NC(=O)[C@H](Cc1ccccc1)NC(=O)[C@@H](NC(=O)CNC(=O)[C@H](CCC(N)=O)NC(=O)C(C)(C)NC(=O)[C@@H](N)Cc1c[nH]cn1)[C@@H](C)O)[C@@H](C)O)C(=O)N[C@@H](CO)C(=O)N[C@@H](CCCCN)C(=O)N[C@@H](Cc1ccc(O)cc1)C(=O)N[C@@H](CC(C)C)C(=O)N[C@@H](CCC(=O)O)C(=O)N[C@@H](CO)C(=O)N[C@@H](CCC(=O)O)C(=O)N[C@@H](CCCNC(=N)N)C(=O)N[C@@H](C)C(=O)N[C@@H](CCCCN)C(=O)N[C@@H](CCC(=O)O)C(=O)N[C@@H](Cc1ccccc1)C(=O)N[C@H](C(=O)N[C@@H](CCC(=O)O)C(=O)N[C@@H](Cc1c[nH]c2ccccc12)C(=O)N[C@@H](CC(C)C)C(=O)N[C@H](C(=O)N[C@@H](CCCCN)C(=O)N[C@@H](CCC(=O)O)C(=O)NCC(=O)NCC(=O)N1CCC[C@H]1C(=O)N[C@@H](CO)C(=O)N[C@@H](CO)C(=O)NCC(N)=O)C(C)C)C(C)C)C(=O)O)C(=O)O) [Compound 19]	6.25 nM	3.53 nM
H[Aib]QGTFTSDK([γGlu-γGlu-Palmitoyl])SKYLEERAAKEFIAWLEGGPSSG-NH2 (not fully specified; printed as HAibQGTFTSDK*SKYLEERAAKEFIAWLEGGPSSG-Amid) [Compound 21]	0.175 nM	0.83 nM
H[Aib]QGTFTSDK([AEEA-AEEA-γGlu-C18 diacid])SKYLEERAAKEFVAWLEAGGPSSG-NH2 (not fully specified; printed as HAibQGTFTSDK**SKYLEERAAKEFVAWLEAGGPSSG-Amid) [Compound 22]	0.018 nM	0.027 nM
